In the supplement of paper PMC9112550, “Optimization of the antimicrobial peptide Bac7 by deep mutational scanning” (BMC Biology, 2022):

Test system: Escherichia coli TOP10
Assay: shrunken log2 fold change of peptide-encoding DNA abundance (4.5 h post-induction vs induction); higher = less antimicrobial activity (less host growth inhibition)
Conditions: time post-induction: 4.5 h; library: site-saturation at positions 5, 18, 19, 20
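Also: peptides expressed intracellularly from a pBAD plasmid library in pooled LB shake-flask culture, induced with 0.3% L-arabinose, DNA abundance read by NGS, three biological replicates, DESeq2 with apeglm shrinkage.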

Sequence | shrunken log2 fold change
RRIRARPPRLPRPRPRPAACPRP | 0.754
RRIRARPPRLPRPRPRPAAKPRP | 1.04
RRIRARPPRLPRPRPRPAARPRP | 0.828
RRIRARPPRLPRPRPRPACDPRP | 0.851
RRIRARPPRLPRPRPRPACWPRP | 0.849
RRIRARPPRLPRPRPRPADGPRP | 0.258
RRIRARPPRLPRPRPRPAESPRP | 0.531
RRIRARPPRLPRPRPRPAFNPRP | 0.273
RRIRARPPRLPRPRPRPAGHPRP | 0.398
RRIRARPPRLPRPRPRPAGPPRP | 0.453
RRIRARPPRLPRPRPRPALHPRP | 0.651
RRIRARPPRLPRPRPRPALIPRP | 0.379
RRIRARPPRLPRPRPRPAMHPRP | 0.589
RRIRARPPRLPRPRPRPAMIPRP | 0.0684
RRIRARPPRLPRPRPRPAMWPRP | 0.317
RRIRARPPRLPRPRPRPANRPRP | 0.467
RRIRARPPRLPRPRPRPAPVPRP | 0.627
RRIRARPPRLPRPRPRPAQPPRP | 0.723
RRIRARPPRLPRPRPRPARFPRP | 1.03
RRIRARPPRLPRPRPRPAVAPRP | 0.728
RRIRARPPRLPRPRPRPAWSPRP | 0.329
RRIRARPPRLPRPRPRPAYAPRP | 0.476
RRIRARPPRLPRPRPRPCACPRP | 0.0599
RRIRARPPRLPRPRPRPCAEPRP | 0.977
RRIRARPPRLPRPRPRPCCEPRP | 0.512
RRIRARPPRLPRPRPRPCDGPRP | 0.146
RRIRARPPRLPRPRPRPCDNPRP | -0.273

Sequence | shrunken log2 fold change
RRIRARPPRLPRPRPRPCDQPRP | -0.00754
RRIRARPPRLPRPRPRPCELPRP | 0.105
RRIRARPPRLPRPRPRPCFTPRP | -0.172
RRIRARPPRLPRPRPRPCGSPRP | -0.0125
RRIRARPPRLPRPRPRPCGVPRP | 0.255
RRIRARPPRLPRPRPRPCHAPRP | 0.284
RRIRARPPRLPRPRPRPCKCPRP | -0.0835
RRIRARPPRLPRPRPRPCKVPRP | -0.164
RRIRARPPRLPRPRPRPCLFPRP | -0.131
RRIRARPPRLPRPRPRPCLIPRP | -0.191
RRIRARPPRLPRPRPRPCPFPRP | -0.154
RRIRARPPRLPRPRPRPCPGPRP | -0.258
RRIRARPPRLPRPRPRPCPHPRP | -0.329
RRIRARPPRLPRPRPRPCRCPRP | 0.0187
RRIRARPPRLPRPRPRPCRDPRP | -0.0411
RRIRARPPRLPRPRPRPCSEPRP | 0.244
RRIRARPPRLPRPRPRPCVFPRP | 0.39
RRIRARPPRLPRPRPRPCVPPRP | -0.0952
RRIRARPPRLPRPRPRPCVVPRP | 0.198
RRIRARPPRLPRPRPRPCWHPRP | 0.134
RRIRARPPRLPRPRPRPCYIPRP | -0.607
RRIRARPPRLPRPRPRPDAIPRP | 1.03
RRIRARPPRLPRPRPRPDDPPRP | 0.632
RRIRARPPRLPRPRPRPDGPPRP | 0.455
RRIRARPPRLPRPRPRPDIAPRP | 0.668
RRIRARPPRLPRPRPRPDKKPRP | 0.0318
RRIRARPPRLPRPRPRPDLPPRP | 0.311
